The results in this text go back to US20160200814A1, “IMMUNORECEPTOR MODULATION FOR TREATING CANCER AND VIRAL INFECTIONS” (THE COUNCIL OF THE QUEENSLAND INSTITUTE OF MEDICAL RESEARCH, priority 2013, published 2016).

In the assay the target is T1, CD155 at the cell surface of B16F10 (Mus musculus, UniProt F6V4I7).
T1 construct: at the cell surface of B16F10 cells; endogenous in cells; host or cells: B16F10 melanoma cells
T1 sequence (F6V4I7 29-408): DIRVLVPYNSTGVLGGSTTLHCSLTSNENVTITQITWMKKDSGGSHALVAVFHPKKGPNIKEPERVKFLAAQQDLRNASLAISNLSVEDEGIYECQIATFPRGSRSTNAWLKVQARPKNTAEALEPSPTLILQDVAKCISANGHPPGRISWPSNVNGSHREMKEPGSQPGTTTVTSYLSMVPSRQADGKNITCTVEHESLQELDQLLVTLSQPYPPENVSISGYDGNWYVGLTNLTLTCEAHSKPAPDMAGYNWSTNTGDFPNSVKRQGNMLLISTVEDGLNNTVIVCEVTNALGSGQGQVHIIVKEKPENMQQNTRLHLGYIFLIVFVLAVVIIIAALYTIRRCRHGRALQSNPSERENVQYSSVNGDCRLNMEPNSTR
Briefly: Binding of DNAM-1-Fc (AF-647) at the cell surface of B16F10 cells, flow cytometry. As to conditions: FIG. 3c; DNAM-1-Fc AF-647 0.5-20 μg/ml; competitor 50 μg/ml; versus control Ig. The text has this: FIG. 3: CD96 limits NK cell-dependent tumor immunosurveillance. a, b. CD96 and DNAM-1 have an opposite role in the control of B16F10 metastasis. a. 2×10^5 B16F10 cells were intravenously injected into WT, CD96^−/−, DNAM-1^−/− and DNAM-1^−/− CD96^−/− mice and metastatic burden was quantified in the lungs after 14 days. Representative experiment out of 3. b. Pictures showing the lung of WT and CD96^−/− mice two weeks after the injection of 2×10^5 and 5×10^5 B16F10 cells. Representative experiment out of two. c. […] The binding of DNAM-1-Fc labeled with AF-647 (0.5-20 μg/ml) at the cell surface of B16F10 cells was analyzed in the presence of 50 μg/ml of control Ig, recombinant CD96 or TIGIT-Fc. The FACS histograms and the mean±SD of triplicate wells from one representative experiment out of 3 are shown. d. A 4 hr^51 Cr release assay was performed between B16F10 cells and IL-2-activated NK cells from WT, DNAM-1^−/− and CD96^−/− mice at the indicated effector target ratios. Solid circles represent WT NK cells, open circles represent CD96^−/− NK cells and solid squares represents DNAM-1^−/− NK cells. e-h. CD96 and DNAM-1 have an opposite role in the immunosurveillance of MCA induced fibrosarcoma mediated by NK cells. e-h Groups of 15-30 male, WT, DNAM-1^−/− and CD96^−/− and DNAM-1^−/− CD96^−/− mice were injected with MCA (100 μg/mouse). […]

B1: recombinant CD96: recombinant CD96 protein used at 50 μg/ml as competitor of DNAM-1-Fc binding (protein, UniProt P40200 22-585, looked up)
T-cell surface protein tactile: VWEKTVNTEENVYATLGSDVNLTCQTQTVGFFVQMQWSKVTNKIDLIAVYHPQYGFYCAYGRPCESLVTFTETPENGSKWTLHLRNMSCSVSGRYECMLVLYPEGIQTKIYNLLIQTHVTADEWNSNHTIEIEINQTLEIPCFQNSSSKISSEFTYAWSVENSSTDSWVLLSKGIKEDNGTQETLISQNHLISNSTLLKDRVKLGTDYRLHLSPVQIFDDGRKFSCHIRVGPNKILRSSTTVKVFAKPEIPVIVENNSTDVLVERRFTCLLKNVFPKANITWFIDGSFLHDEKEGIYITNEERKGKDGFLELKSVLTRVHSNKPAQSDNLTIWCMALSPVPGNKVWNISSEKITFLLGSEISSTDPPLSVTESTLDTQPSPASSVSPARYPATSSVTLVDVSALRPNTTPQPSNSSMTTRGFNYPWTSSGTDTKKSVSRIPSETYSSSPSGAGSTLHDNVFTSTARAFSEVPTTANGSTKTNHVHITGIVVNKPKDGMSWPVIVAALLFCCMILFGLGVRKWCQYQKEIMERPPPFKPPPPPIKYTCIQEPNESDLPYHEMETL
As for B1, the “competition with DNAM-1-Fc binding to CD155” value is reported as “compete with DNAM-1 for the binding of CD155 at the cell surface of B16F10”.
